Measurements taken from publication PMC6262856.

target: biotin-15d-PGJ2; assay: biotin pull-down (avidin) with western-blot quantification (ImageJ); conditions: 293T cells transfected with FLAG-eIF4A1s

ratio to parent | Substance
2.35 | FLAG-eIF4A1 (from UniProt P60842) R295A
0.17 | FLAG-eIF4A1 (from UniProt P60842) C264S
0.03 | FLAG-eIF4A1 (from UniProt P60842) C264S; R295A
